Common to all, as to conditions: both partners purified
Experiment [1] addresses Recombinant hemagglutinin of H3N2 A/Aichi/2/1968, ectodomain, monomeric (Influenza A virus A/Aichi/2/1968 (H3N2), strain). As to the kind of experiment: SPR.
For experiment [2], the target named is Recombinant hemagglutinin of H14N6 A/long-tailed duck/Wisconsin/10OS3912/2010, ectodomain, monomeric (Influenza A virus A/long-tailed …, UniProt G5DSS3, strain). As to the kind of experiment: SPR.
In experiment [3] the target is Recombinant hemagglutinin of H10N8 A/Jiangxi-Donghu/346/2013, ectodomain, monomeric (Influenza A virus …, strain). Kind of experiment: SPR.
Experiment [4] concerns the target Recombinant hemagglutinin of H4N6 A/duck/Czech/1956, ectodomain, monomeric (Influenza A virus A/duck/Czech/1956 …, strain). Kind of experiment: SPR.
The target in experiment [5] is Recombinant hemagglutinin of H7N9 A/Anhui/1/2013, ectodomain (Influenza A virus A/Anhui/1/2013 …, UniProt A0A024E3P0, strain). As to the kind of experiment: SPR.
The target in experiment [6] is T1, H3 HA (strain not given) (Influenza A virus A/Aichi/2/1968 (H3N2)). As to the kind of experiment: ELISA.
Experiment [7] has as its target Recombinant hemagglutinin of H15N8 A/duck/Australia/341/1983, ectodomain, monomeric (Influenza A virus …, UniProt Q82565, strain). Kind of experiment: SPR.
The target of experiment [8] is H14 HA (H14N6 A/long-tailed duck/Wisconsin/10OS3912/2010) (Influenza A virus A/long-tailed …, UniProt G5DSS3). Kind of experiment: SPR.
Experiment [9] addresses T1, H3 HA (strain not given). Kind of experiment: SPR.

B1: AF4H1K1 Fab (Fab, V domains shown)
VH: QVQLVESGGGVVQPGTSLRLSCEASGFTSSAYAMHWVRQAPGKGLEWVAVITFDGGYQYYADSVKGRFTISRDISRNTLHLHMNSLRAEDTAVYYCARDPLTKLLPFDWVSGGYFDYWGQGTLVTVSS
VL: not shown
notes: also called H1 paired with K1
Take B1: the Kd was 0.79 nM in experiment [1]; 16 nM in [2]; 21 nM in experiment [3]; 9 nM in experiment [4]; 14 nM in experiment [5].

B2: AF4H1/L1CDR3m (antibody, V domains shown)
VH: B1 VH
VL: SYELTQPPSVSVSPGQTASITCSGDKLGDKYACWYQQKPGQSPVLVIYQDSKRPSGIPERFSGSNSGNTATLTISGTQAMDEADYYCQQYGSSFTFGTGTKVTVL
notes: IgG; copies: 2 + 2
B2: the binding result with H3 HA (strain not given) [6] is listed as “no binding”.

B3: AF4H1/FI6v3L Fab (Fab, V domains shown)
VH: B1 VH
VL: not shown
notes: also called AF4H1/FI6L; hybrid MAb with heavy chain from AF4H1K1 and light chain from FI6v3
Consider B3, for which the Kd in [7] was determined as 518 nM; in [1] it was 0.0764 nM; in [2] it was 15.9 nM; in experiment [3] it was 37.7 nM; in experiment [4], 1.93 nM; in experiment [5], 11.2 nM.

B4: AF4H1K1 Fab (Fab, V domains shown)
VH: B1 VH
VL: not shown
notes: also called AF4H1K1 Fab fragment
In the case of B4, the binding result (in experiment [8]; in the experiment with H3 HA (strain not given) [9]) was “binds” each time.

Values taken from paper PMC6465249 (Cell Discovery, 2019).
